Molecular target: the molecule itself
Experiment: AUC; sedimentation velocity, 1.0 mg.ml^-1 SuhB, no Mg^2+; 20 mM Tris-HCl pH 7.9, 50 mM NaCl, 40,000 rpm, 4°C; monomer to dimer

B1: Mycobacterium tuberculosis SuhB (Rv2701c), inositol monophosphatase (enzyme)
chain: MTRPDNEPARLRSVAENLAAEAAAFVRGRRAEVFGISRAGDGDGAVRAKSSPTDPVTVVDTDTERLLRDRLAQLRPGDPILGEEGGGPADVTATPSDRVTWVLDPIDGTVNFVYGIPAYAVSIGAQVGGITVAGAVADVAARTVYSAATGLGAHLTDERGRHVLRCTGVDELSMALLGTGFGYSVRCREKQAELLAHVVPLVRDVRRIGSAALDLCMVAAGRLDAYYEHGVQVWDCAAGALIAAEAGARVLLSTPRAGGAGLVVVAAAPGIADELLAALQRFNGLEPIPD
notes: Inositol monophosphatase SuhB (Rv2701c) of Mycobacterium tuberculosis; the crystal model covers residues 5-34, 54-85, 98-253, 260-286; also called IMPase
- stoichiometry N: 2

From paper PMC2080633, “Dimerization of inositol monophosphatase Mycobacterium tuberculosis SuhB is not constitutive, but induced by binding of the activator Mg^2+” (BMC Structural Biology, 2007)
